Test results published in paper PMC10881024, “No evidence for a direct extracellular interaction between human Fc receptor–like 3 (MAIA) and the sperm ligand IZUMO1” (Science Advances, 2024).

Target: T1, human IZUMO1 entire ectodomain, biotinylated, rat Cd4 domains 3 and 4 tagged (bait construct) (human, UniProt Q8IYV9 22-285, enzymatically biotinylated (BirA) on the biotinylation target sequence)
T1 construct: IZUMO1, human, entire ectodomain, truncated at P285 of Q8IYV9; Monomer as expressed; also called IZUMO1 bait; biotinylated monomeric IZUMO1; source: HEK293-6E, transient transfection, cotransfected with secreted BirA; conditioned medium dialysed in PBS, or purified from spent medium on Ni-NTA (SAVEXIS); not shown: domains 3 and 4 of rat CD4, C-terminal, kept
T1 sequence (Q8IYV9 22-285): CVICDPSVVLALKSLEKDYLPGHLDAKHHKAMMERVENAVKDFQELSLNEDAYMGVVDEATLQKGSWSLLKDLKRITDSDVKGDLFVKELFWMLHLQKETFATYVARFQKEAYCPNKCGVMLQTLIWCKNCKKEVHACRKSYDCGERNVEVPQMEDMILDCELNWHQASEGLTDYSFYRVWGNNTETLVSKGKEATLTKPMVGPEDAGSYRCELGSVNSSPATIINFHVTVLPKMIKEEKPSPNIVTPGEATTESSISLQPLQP
Assay: SAVEXIS; purified monomeric biotinylated baits at 13.4 nM captured on streptavidin-coated plates 16 hours at 4°C; preys made multimeric by clustering biotinylated monomers around streptavidin-HRP, 4.4 nM, 1 hour at room temperature; HBS-T washes with desthiobiotin; tetramethylbenzidine, absorbance at 650 nm
Settings: both partners purified

binding result: binds
B1: human JUNO entire ectodomain, biotinylated, rat Cd4 domains 3 and 4 tagged (bait construct) (domain or fragment, UniProt A6ND01 20-231, looked up)
chain: GDELLNICMNAKHHKRVPSPEDKLYEECIPWKDNACCTLTTSWEAHLDVSPLYNFSLFHCGLLMPGCRKHFIQAICFYECSPNLGPWIQPVGSLGWEVAPSGQGERVVNVPLCQEDCEEWWEDCRMSYTCKSNWRGGWDWSQGKNRCPKGAQCLPFSHYFPTPADLCEKTWSNSFKASPERRNSGRCLQKWFEPAQGNPNVAVARLFASSAP
modifications: enzymatically biotinylated (BirA) on the biotinylation target sequence
notes: JUNO, human, entire ectodomain, truncated at P231 of A6ND01; also called JUNO bait; human JUNO (bait); source: HEK293-6E, transient transfection, cotransfected with secreted BirA; conditioned medium dialysed in PBS (AVEXIS), or purified from spent medium on Ni-NTA (SAVEXIS); not shown: domains 3 and 4 of rat CD4, C-terminal, kept
